Measurements from patent US7387779B2, “Anti-angiogenic proteins and fragments and methods of use thereof” (Beth Israel Deaconess Medical Center, priority 1998, dated 2008).

Tests used:
C-PAE cells [1] = assay: Total protein synthesis, 35S-methionine incorporation; assay type: cell-based, bovine
Experimental: Primary human renal epithelial cells (HRE) were purchased from Clonetics (San Diego, Calif., USA) and were maintained in REGM (Clonetics Corp.). Other cell lines were obtained and maintained as described above. Cells were serum-starved for 24 hrs (0.5% FCS), stimulated with 10% FCS in the presence of T3 peptide, Tumstatin-44-131, endostatin or rapamycin for 12-24 hours. After pre-incubation of cells in methionine-free media for 1 hour, cells were labeled with ^35S-methionine for 1 hour and incorporation of radioactivity into trichloracetic acid precipitates was analyzed (Sudhakar, A. et al., 2000, Biochem. 39:12929-38; Maeshima, Y. et al., 1996, J. Amer. Soc. Nephrol. 7:2219-29). ANOVA with a one-tailed Student's t test was used to identify significant differences in multiple comparisons in the present study. A level of P<0.05 was considered statistically significant.

Caspase-3 in C-PAE cells = assay: Caspase-3 assay; assay type: cell-based, bovine; conditions: 20 μg/ml Tumstatin; TNF-α positive control
C-PAE cells [2] = assay: Cell cycle analysis (propidium iodide, flow cytometry); assay type: cell-based, bovine; conditions: 10% FBS
[3] = system: CD31-positive tumor vasculature; assay: CD31 immunohistochemistry of xenograft tumors; conditions: mouse, in vivo
Experimental: Mice from the tumor studies were sacrificed after 10-20 days of treatment. Tumours were excised and fixed in 4% paraformaldehyde. Tissues were paraffin embedded and 3 μm sections were cut and mounted on glass slides. Sections were deparaffinized, rehydrated and treated with […] protease XXIV (SIGMA Chemical Co., St. Louis, Mo., USA) at 37° C. for 5 minutes. Digestion was stopped with 100% ethanol and sections were air dried and blocked with 10% rabbit serum. […]
CD31 immunostaining was used to determine the intra-tumoral microvessel density (MVD) in frozen histological sections of the PC-3 tumor xenografts, using a rat anti-mouse […] monoclonal antibody (PharMingen, San Diego, Calif., USA) with a standard streptavidin-biotin-peroxidase detection system (Vectastain ABC Elite Kit, Vector Labs, Burlingame, Calif., USA). […] MVD was assessed by scanning the tumor at low power magnification, then identifying three areas at the tumor periphery which contained the maximum number of discrete microvessels, and then counting individual microvessels on a 40× field. The mean microvessel density was compared among treatment groups and analyzed using the Student's t-test.

PC-3 tumors = assay: PC-3 prostate tumor xenograft in SCID mice; assay type: in vivo; conditions: 10 mg/kg
Experimental: Human prostate adenocarcinoma cells (PC-3 cells) were harvested from culture and 2 million cells in sterile PBS were injected subcutaneously into 7- to 9-week-old male SCID mice. The tumors grew for approximately 4 weeks after which animals were divided into groups of 4 mice. […] The control group received equal volumes of PBS each day. At the start of treatment (day 0), the tumors ranged in volume from 88 mm^3 to 135 mm^3 for the control mice, and 108 mm^3 to 149 mm^3 for the Canstatin-treated mice. Each group contained five mice. […] Canstatin-treated (▪) tumors increased only marginally in size relative to controls (□).

MDA-MB435 tumors = assay: MDA-MB435 breast cancer carcinoma orthotopic model (Example 41); assay type: in vivo; conditions: 5 mg or 20 mg per kilogram
HUVEC cells = assay: Cell surface labeling with biotinylated Tumstatin-44-131; assay type: binding, human; conditions: streptavidin-FITC
Experimental: Recombinant E. Coli-expressed Tumstatin-44-131 was biotinylated using Sulfo-NHS-LC-Biotin (Pierce Chem. Co). Tumstatin-44-131, in a buffer containing 10% DMSO and 5% D-mannitol, was incubated with 12 M excess of Sulfo-NHS-LC-Biotin overnight at 4° C. The biotinylated Tumstatin-44-131 precipitated out of solution during this incubation. The precipitate was washed twice with distilled water, resuspended in DMSO, and then mixed 1:1 with distilled water to obtain a final concentration of approximately 4 mg/ml. The biotinylated Tumstatin-44-131 was stored at 4° C.
For cell surface labeling, subconfluent HUVEC cells were removed from the flask using EDTA with light trypsinization, and then washed twice with DMEM containing 2% BSA. Cells were then resuspended in DMEM/BSA and incubated for 1 hour at 4° C. with either biotin-labeled Tumstatin-44-131 or the product of a mock biotin reaction run without Tumstatin-44-131. Cells were then washed twice with DMEM/BSA and then incubated with streptavidin-FITC (“Neutravidin-FITC”, Pierce Chem. Co) for thirty minutes at 4° C. Samples were then viewed on a Nikon Eclipse E600 fluorescent microscope and analyzed by flow cytometry.

LQRFTTMPFLFCNVNDVCNF [T3]
maximal inhibition of protein synthesis (C-PAE cells [1]; 22.7 μM): about 45%

B1: Tumstatin: NC1 domain of the α3 chain of type IV collagen, residues 1-244 (SEQ ID NO:10) (protein, listed as Homo sapiens)
chain: GLKGKRGDSGSPATWTTRGFVFTRHSQTTAIPSCPEGTVPLYSGFSFLFVQGNQRAHGQDLGTLGSCLQRFTTMPFLFCNVNDVCNFASRNDYSYWLSTPALMPMNMAPITGRALEPYISRCTVCEGPAIAIAVHSQTTDIPPCPHGWISLWKGFSFIMFTSAGSEGTGQALASPGSCLEEFRASPFLECHGRGTCNYYSNSYSFWLASLNPERMFRKPIPSTVKAGELEKIISRCQVCMKKRH
fold increase in Caspase-3 activity (Caspase-3 in C-PAE cells): 1.6 fold

B2: endostatin: tumor associated angiogenesis inhibitor used as comparator (protein, UniProt P39060 1572-1754, looked up)
Endostatin: HSHRDFQPVLHLVALNSPLSGGMRGIRGADFQCFQQARAVGLAGTFRAFLSSRLQDLYSIVRRADRAAVPIVNLKDELLFPSWEALFSGSEGPLKPGARIFSFDGKDVLRHPTWPQKSVWHGSDPNGRRLTESYCETWRTEAPSATGQASSLLGGRLLGQSAASCHHAYIVLCIENSFMTASK
modifications: Endostatin
IC50, inhibition of cell cycle progression (C-PAE cells [2]): no activity
inhibition of protein synthesis (C-PAE cells [1]; 4.5 μM, 24 hours of serum stimulation, rapamycin 100 ng/ml): did not inhibit protein synthesis

B3: Canstatin: NC1 domain of the α2 chain of Type IV collagen (SEQ ID NO:6) (protein, listed as Homo sapiens)
chain: VSIGYLLVKHSQTDQEPMCPVGMNKLWSGYSLLYFEGQEKAHNQDLGLAGSCLARFSTMPFLYCNPGDVCYYASRNDKSYWLSTTAPLPMMPVAEDEIKPYISRCSVCEAPAIAIAVHSQDVSIPHCPAGWRSLWIGYSFLMHTAAGDEGGGQSLVSPGSCLEDFRATPFIECNGGRGTCHYYANKYSFWLTTIPEQSFQGSPSADTLKAGLIRTHISRCQVCMKNL
CD31 staining of tumor vasculature, treated vs control [3]: decrease in CD31-positive vasculature
fractional tumor volume as % of vehicle only-injected mice (PC-3 tumors): 55%
fractional tumor volume, fold less than vehicle (PC-3 tumors): 1.8 fold

B4: Tum-1: residues 54 to 244 of Tumstatin, lacking the N-terminal 53 amino acids (SEQ ID NO:22) (protein)
chain: QRAHGQDLGTLGSCLQRFTTMPFLFCNVNDVCNFASRNDYSYWLSTPALMPMNMAPITGRALEPYISRCTVCEGPAIAIAVHSQTTDIPPCPHGWISLWKGFSFIMFTSAGSEGTGQALASPGSCLEEFRASPFLECHGRGTCNYYSNSYSFWLASLNPERMFRKPIPSTVKAGELEKIISRCQVCMKKRH
modifications: Tum-1 (Tumstatin N-53) (amino acids 54-244 of SEQ ID NO10)
anti-tumor activity (MDA-MB435 tumors): substantial anti-tumor activity
IC50, inhibition of cell cycle progression (C-PAE cells [2]): about 5 μg/ml

B5: Tumstatin-44-131: residues 44 to 131 of full-length Tumstatin (SEQ ID NO:33) (protein)
chain: FSFLFVQGNQRAHGQDLGTLGSCLQRFTTMPFLFCNVNDVCNFASRNDYSYWLSTPALMPMNMAPITGRALEPYISRCTVCEGPAIAI
modifications: Tumstatin-45-132 (amino acids 45-132 of SEQ ID NO10)
binding to the endothelial cell surface (HUVEC cells): binds the surface of endothelial cells
